Data from patent US20230059341A1 (TESARO, published 2023).
Read-outs that look alike come from different tables or passages of the source. Blank lines part the entries; values can stand above or below the binder they belong to.

How the values were obtained:
[1] = biological target: T1, human PD-1 on PD-1 effector cells (Jurkat T cells, Promega #J1155) (human, UniProt Q15116 25-288); assay: cell-based or functional assay
[2] = biological target: T1, human PD-1 on PD-1 effector cells …; assay: cell-based or functional assay; remark: listed apart in the source
[3] = biological target: T2, Neonatal Fc Receptor (FcRn) (UniProt P55899 24-297; P61769 21-119, limits assumed); assay: FcRn binding assay, BIACORE (SPR)
[4] = biological target: T3, PD-1 protein constitutively expressed on engineered CHO K1 cells (UniProt Q15116 25-288, limits assumed); assay: MSD potency assay: competitive binding on CHO K1 cells expressing PD-1, inhibition of PD-L1-mFc binding, ECL; percent of reference material
T3 construct: whole, on cells; also called programmed cell death protein 1
Protocol: (§1) The Meso Scale Discovery (MSD) potency assay employs engineered CHO K1 cells constitutively expressing the PD-1 protein. […] The readout is measured using a specific detection antibody mixture that releases an electrochemiluminescence (ECL) signal that can be quantified.

[5] = biological target: T2, Neonatal Fc Receptor (FcRn); assay: FcRn binding assay, BIACORE (SPR); remark: listed apart in the source
[6] = biological target: T3, PD-1 protein constitutively expressed …; assay: MSD potency assay: competitive binding on CHO K1 cells expressing PD-1, inhibition of PD-L1-mFc binding, ECL; percent of reference material; remark: listed apart in the source
Protocol: as §1

[7] = biological target: T1, human PD-1 on PD-1 effector cells …; assay: cell-based or functional assay; remark: listed apart in the source
[8] = biological target: T2, Neonatal Fc Receptor (FcRn); assay: FcRn binding assay, BIACORE (SPR); remark: listed apart in the source
[9] = biological target: T3, PD-1 protein constitutively expressed …; assay: MSD potency assay: competitive binding on CHO K1 cells expressing PD-1, inhibition of PD-L1-mFc binding, ECL; percent of reference material; remark: listed apart in the source
Protocol: as §1

[10] = biological target: T1, human PD-1 on PD-1 effector cells …; assay: cell-based or functional assay; remark: listed apart in the source
[11] = biological target: T3, PD-1 protein constitutively expressed …; assay: MSD potency assay: competitive binding on CHO K1 cells expressing PD-1, inhibition of PD-L1-mFc binding, ECL; percent of reference material; remark: listed apart in the source
Protocol: as §1

T1 sequence (Q15116 25-288): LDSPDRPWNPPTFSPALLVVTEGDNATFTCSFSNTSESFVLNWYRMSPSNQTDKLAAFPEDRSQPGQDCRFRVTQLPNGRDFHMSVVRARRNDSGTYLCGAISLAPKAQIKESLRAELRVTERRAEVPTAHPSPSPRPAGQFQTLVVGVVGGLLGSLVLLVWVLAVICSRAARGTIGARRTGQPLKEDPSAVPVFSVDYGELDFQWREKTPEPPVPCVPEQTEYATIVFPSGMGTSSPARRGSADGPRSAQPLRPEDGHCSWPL
T3 sequence (Q15116 25-288 limits assumed, change not shown): as the sequence (Q15116 25-288) above

B2: Dostarlimab, AAPH treated, 40° C., 7 days (antibody, human IgG4 S228P, kappa)
heavy: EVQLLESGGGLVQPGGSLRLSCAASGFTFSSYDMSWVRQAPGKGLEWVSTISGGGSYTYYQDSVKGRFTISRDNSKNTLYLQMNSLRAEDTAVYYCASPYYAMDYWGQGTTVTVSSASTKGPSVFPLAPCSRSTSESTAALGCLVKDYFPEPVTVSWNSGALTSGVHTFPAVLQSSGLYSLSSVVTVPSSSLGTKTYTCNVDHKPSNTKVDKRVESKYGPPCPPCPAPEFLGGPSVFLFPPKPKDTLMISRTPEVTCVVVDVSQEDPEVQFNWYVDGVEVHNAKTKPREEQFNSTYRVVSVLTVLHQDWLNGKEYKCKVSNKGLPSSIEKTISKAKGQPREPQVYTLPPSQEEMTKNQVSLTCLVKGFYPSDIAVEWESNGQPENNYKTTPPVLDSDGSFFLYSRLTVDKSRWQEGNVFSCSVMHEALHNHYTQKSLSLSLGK
light: DIQLTQSPSFLSAYVGDRVTITCKASQDVGTAVAWYQQKPGKAPKLLIYWASTLHTGVPSRFSGSGSGTEFTLTISSLQPEDFATYYCQHYSSYPWTFGQGTKLEIKRTVAAPSVFIFPPSDEQLKSGTASVVCLLNNFYPREAKVQWKVDNALQSGNSQESVTEQDSKDSTYSLSSTLTLSKADYEKHKVYACEVTHQGLSSPVTKSFNRGEC
modifications: PTM levels of this sample are not tabulated
notes: 5 mM AAPH; HMW 18.7%; also called AAPH, 40° C., 7 days
- Kd [5]: 9690 nM
- Relative Potency, MSD Binding [6]: 43%

B5: Dostarlimab, AAPH treated, T0 (exposed to AAPH, no incubation) (antibody, human IgG4 S228P, kappa)
heavy: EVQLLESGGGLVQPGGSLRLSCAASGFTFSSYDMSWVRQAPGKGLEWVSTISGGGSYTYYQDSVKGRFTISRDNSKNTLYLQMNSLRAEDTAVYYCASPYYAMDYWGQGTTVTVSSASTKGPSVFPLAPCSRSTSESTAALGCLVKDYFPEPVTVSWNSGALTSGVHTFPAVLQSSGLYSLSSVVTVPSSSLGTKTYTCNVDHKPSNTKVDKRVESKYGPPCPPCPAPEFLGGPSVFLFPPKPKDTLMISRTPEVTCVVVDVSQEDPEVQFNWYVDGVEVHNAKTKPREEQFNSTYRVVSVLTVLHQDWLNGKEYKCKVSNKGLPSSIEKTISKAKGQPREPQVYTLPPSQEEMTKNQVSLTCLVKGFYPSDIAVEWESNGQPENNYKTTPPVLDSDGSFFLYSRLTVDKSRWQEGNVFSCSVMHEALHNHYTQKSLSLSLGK
light: DIQLTQSPSFLSAYVGDRVTITCKASQDVGTAVAWYQQKPGKAPKLLIYWASTLHTGVPSRFSGSGSGTEFTLTISSLQPEDFATYYCQHYSSYPWTFGQGTKLEIKRTVAAPSVFIFPPSDEQLKSGTASVVCLLNNFYPREAKVQWKVDNALQSGNSQESVTEQDSKDSTYSLSSTLTLSKADYEKHKVYACEVTHQGLSSPVTKSFNRGEC
modifications: percent of population: Asn 137 deamidation 1.0; percent of population: Met 248 oxidation 3.3; Asp 261/266/276 isomerization 1.0; Asn 311 deamidation 6.3; Asn 380 deamidation 9.5; Asn 385 deamidation 1.0; Asn 430 deamidation 1.3; Lys 443 clipped 97.8
notes: 5 mM AAPH, quenched at once with methionine; also called AAPH T0; AAPH Oxidation
- Relative Potency, Cell-Based Bioassay [10]: 102%
- Relative Potency (Potency by cell-based bioassay) [2]: 102%
- Kd [5]: 1660 nM
- Relative Potency, MSD Binding [6]: 79%

B6: Dostarlimab, AAPH treated, 40° C., 5 days (antibody, human IgG4 S228P, kappa, V domains shown)
VH: EVQLLESGGGLVQPGGSLRLSCAASGFTFSSYDMSWVRQAPGKGLEWVSTISGGGSYTYYQDSVKGRFTISRDNSKNTLYLQMNSLRAEDTAVYYCASPYYAMDYWGQGTTVTVSS
VL: DIQLTQSPSFLSAYVGDRVTITCKASQDVGTAVAWYQQKPGKAPKLLIYWASTLHTGVPSRFSGSGSGTEFTLTISSLQPEDFATYYCQHYSSYPWTFGQGTKLEIKR
modifications: percent of population: Trp 50 oxidation 86.8; PTM levels of this sample are not tabulated
notes: 5 mM AAPH; HMW 16.4%; also called AAPH, 40° C., 5 days
- Relative Potency, Cell-Based Bioassay [10]: 5%
- Relative Potency, MSD Binding [6]: 47%

B7: Dostarlimab, H2O2 treated, 25° C., 1 week (antibody, human IgG4 S228P, kappa, V domains shown)
VH: EVQLLESGGGLVQPGGSLRLSCAASGFTFSSYDMSWVRQAPGKGLEWVSTISGGGSYTYYQDSVKGRFTISRDNSKNTLYLQMNSLRAEDTAVYYCASPYYAMDYWGQGTTVTVSS
VL: DIQLTQSPSFLSAYVGDRVTITCKASQDVGTAVAWYQQKPGKAPKLLIYWASTLHTGVPSRFSGSGSGTEFTLTISSLQPEDFATYYCQHYSSYPWTFGQGTKLEIKR
modifications: percent of population: Asn 137 deamidation 1.3; percent of population: Met 34 oxidation 14.0; Met 103 oxidation 64.9; Met 248 oxidation 98.6; Asn 311 deamidation 7.0; Met 354 oxidation 99.8; Asn 380 deamidation 10.9; Asn 385 deamidation 1.8; Met 424 oxidation 98.0; Lys 443 clipped 98.0
notes: 0.1% (v:v) H2O2; also called H2O2, 25° C., 1 week
- Relative Potency, MSD Binding [11]: 79%

The remaining lines, values ahead:

- Relative Potency, Cell-Based Bioassay [1]: 86%
- Relative Potency (Potency by cell-based bioassay) [2]: 86%
- Kd [3]: 2290 nM
- Relative Potency, MSD Binding [4]: 76%
B1: Dostarlimab, thermally degraded, 50° C., 3 weeks (antibody, human IgG4 S228P, kappa)
heavy: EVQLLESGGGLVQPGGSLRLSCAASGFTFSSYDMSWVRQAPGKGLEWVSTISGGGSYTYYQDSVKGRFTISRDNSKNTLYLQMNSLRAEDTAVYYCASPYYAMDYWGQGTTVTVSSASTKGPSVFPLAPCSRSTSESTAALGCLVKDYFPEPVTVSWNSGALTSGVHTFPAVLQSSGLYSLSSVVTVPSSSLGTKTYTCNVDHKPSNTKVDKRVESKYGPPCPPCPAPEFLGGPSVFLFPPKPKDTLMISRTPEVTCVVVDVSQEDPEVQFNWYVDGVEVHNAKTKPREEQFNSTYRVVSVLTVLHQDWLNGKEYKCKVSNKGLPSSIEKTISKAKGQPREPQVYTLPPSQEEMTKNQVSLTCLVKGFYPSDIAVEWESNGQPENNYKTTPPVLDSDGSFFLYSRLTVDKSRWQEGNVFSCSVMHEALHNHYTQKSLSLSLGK
light: DIQLTQSPSFLSAYVGDRVTITCKASQDVGTAVAWYQQKPGKAPKLLIYWASTLHTGVPSRFSGSGSGTEFTLTISSLQPEDFATYYCQHYSSYPWTFGQGTKLEIKRTVAAPSVFIFPPSDEQLKSGTASVVCLLNNFYPREAKVQWKVDNALQSGNSQESVTEQDSKDSTYSLSSTLTLSKADYEKHKVYACEVTHQGLSSPVTKSFNRGEC
modifications: percent of population: Asp 151/167 isomerization 2.5; percent of population: Met 248 oxidation 7.6; Asp 261/266/276 isomerization 13.1; Asn 311 deamidation 7.4; Met 354 oxidation 4.2; Asn 380 deamidation 14.7; Asn 385 deamidation 5.9; Asp 395/397/409 isomerization 2.2; Met 424 oxidation 3.5; Asn 430 deamidation 2.0; Lys 443 clipped 97.8
notes: Mixture; HMW 11.2%, acidic peaks 59.1%; also called Thermal Degradation

- Relative Potency, Cell-Based Bioassay [7]: 109%
- Kd [8]: 2060 nM
- Relative Potency, MSD Binding [9]: 99%
B3: Dostarlimab, acid degraded, T0 (exposed to pH 4.0, no incubation) (antibody, human IgG4 S228P, kappa)
heavy: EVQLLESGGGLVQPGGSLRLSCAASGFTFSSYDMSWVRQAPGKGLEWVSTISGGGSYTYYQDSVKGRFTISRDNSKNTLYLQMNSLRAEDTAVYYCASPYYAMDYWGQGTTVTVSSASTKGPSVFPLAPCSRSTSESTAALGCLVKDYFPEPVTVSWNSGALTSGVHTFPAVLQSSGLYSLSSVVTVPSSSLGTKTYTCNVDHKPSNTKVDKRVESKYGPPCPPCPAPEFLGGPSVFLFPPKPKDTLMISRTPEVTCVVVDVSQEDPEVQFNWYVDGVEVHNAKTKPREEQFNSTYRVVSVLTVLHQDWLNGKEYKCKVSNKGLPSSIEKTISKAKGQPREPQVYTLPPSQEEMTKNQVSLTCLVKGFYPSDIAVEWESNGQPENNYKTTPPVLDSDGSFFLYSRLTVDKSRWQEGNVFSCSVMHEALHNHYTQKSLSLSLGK
light: DIQLTQSPSFLSAYVGDRVTITCKASQDVGTAVAWYQQKPGKAPKLLIYWASTLHTGVPSRFSGSGSGTEFTLTISSLQPEDFATYYCQHYSSYPWTFGQGTKLEIKRTVAAPSVFIFPPSDEQLKSGTASVVCLLNNFYPREAKVQWKVDNALQSGNSQESVTEQDSKDSTYSLSSTLTLSKADYEKHKVYACEVTHQGLSSPVTKSFNRGEC
modifications: percent of population: Asn 137 deamidation 1.2; percent of population: Met 248 oxidation 3.8; Asn 311 deamidation 7.1; Asn 380 deamidation 10.1; Asn 385 deamidation 1.5; Lys 443 clipped 97.1
notes: Mixture; HMW 13.4%, basic peaks 13.6%

- Relative Potency, Cell-Based Bioassay [7]: 125%
- Relative Potency (Potency by cell-based bioassay) [2]: 125%
- Kd [8]: 1980 nM
- Relative Potency, MSD Binding [9]: 88%
B4: Dostarlimab, acid degraded, pH 4.0, 25° C., 3 weeks (antibody, human IgG4 S228P, kappa)
heavy: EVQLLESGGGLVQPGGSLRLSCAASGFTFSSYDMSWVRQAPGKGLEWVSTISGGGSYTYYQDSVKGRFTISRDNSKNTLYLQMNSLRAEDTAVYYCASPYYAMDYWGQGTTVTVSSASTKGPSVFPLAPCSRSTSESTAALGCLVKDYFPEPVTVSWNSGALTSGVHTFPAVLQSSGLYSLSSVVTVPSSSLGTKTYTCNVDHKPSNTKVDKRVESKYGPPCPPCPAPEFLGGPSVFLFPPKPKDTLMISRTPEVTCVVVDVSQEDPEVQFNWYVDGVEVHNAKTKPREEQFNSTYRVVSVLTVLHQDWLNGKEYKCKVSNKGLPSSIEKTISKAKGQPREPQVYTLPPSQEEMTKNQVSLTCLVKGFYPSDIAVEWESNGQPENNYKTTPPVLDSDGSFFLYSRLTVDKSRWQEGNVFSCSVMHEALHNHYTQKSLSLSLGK
light: DIQLTQSPSFLSAYVGDRVTITCKASQDVGTAVAWYQQKPGKAPKLLIYWASTLHTGVPSRFSGSGSGTEFTLTISSLQPEDFATYYCQHYSSYPWTFGQGTKLEIKRTVAAPSVFIFPPSDEQLKSGTASVVCLLNNFYPREAKVQWKVDNALQSGNSQESVTEQDSKDSTYSLSSTLTLSKADYEKHKVYACEVTHQGLSSPVTKSFNRGEC
modifications: percent of population: Asn 137 deamidation 1.2; percent of population: Met 248 oxidation 3.1; Asp 261/266/276 isomerization 3.0; Asn 311 deamidation 7.2; Asn 380 deamidation 9.7; Asn 385 deamidation 1.8; Asp 395/397/409 isomerization 2.7; Asn 430 deamidation 1.0; Lys 443 clipped 97.0
notes: Mixture; HMW 15.2%, basic peaks 34.1%; also called Acid Hydrolysis

- Relative Potency (Potency by cell-based bioassay) [2]: 86%
B8: Dostarlimab, sustained agitation, 300 rpm, 25° C., 3 weeks (antibody, human IgG4 S228P, kappa, V domains shown)
VH: EVQLLESGGGLVQPGGSLRLSCAASGFTFSSYDMSWVRQAPGKGLEWVSTISGGGSYTYYQDSVKGRFTISRDNSKNTLYLQMNSLRAEDTAVYYCASPYYAMDYWGQGTTVTVSS
VL: DIQLTQSPSFLSAYVGDRVTITCKASQDVGTAVAWYQQKPGKAPKLLIYWASTLHTGVPSRFSGSGSGTEFTLTISSLQPEDFATYYCQHYSSYPWTFGQGTKLEIKR
modifications: all PTM levels within analytical variability of the control
